T1: EcGadB (Escherichia coli, UniProt P69910)
T1 construct: gene gadB; recombinant, purified full-length enzyme, prepared by earlier published protocol; PLP enzyme
T1 sequence (P69910 1-466): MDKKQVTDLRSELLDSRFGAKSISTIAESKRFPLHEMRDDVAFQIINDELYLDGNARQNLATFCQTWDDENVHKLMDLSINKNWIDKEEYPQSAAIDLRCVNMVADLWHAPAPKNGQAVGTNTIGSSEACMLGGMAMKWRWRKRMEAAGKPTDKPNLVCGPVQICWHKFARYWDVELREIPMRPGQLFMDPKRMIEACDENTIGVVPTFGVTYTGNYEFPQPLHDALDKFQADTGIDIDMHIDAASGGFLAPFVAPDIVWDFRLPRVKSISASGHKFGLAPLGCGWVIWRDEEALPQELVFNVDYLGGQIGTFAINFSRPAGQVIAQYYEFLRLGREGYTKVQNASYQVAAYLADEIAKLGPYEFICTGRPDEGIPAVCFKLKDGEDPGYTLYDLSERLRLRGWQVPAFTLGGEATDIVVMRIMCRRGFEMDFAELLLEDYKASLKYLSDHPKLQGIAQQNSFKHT

B1: EcGadB (Escherichia coli K-12) (protein)
chain: T1 sequence (P69910 1-466)
notes: recombinant, purified full-length enzyme, prepared by earlier published protocol; PLP enzyme

How the values were obtained:
[1] = molecular target: T1, EcGadB; assay: decarboxylation; GABA quantified by end-point GABase assay (NADPH at […] nm), Michaelis-Menten fit; type: biochemical; details: pyridine/HCl 0.2 M (0.1 M in Figure 2 legend), pH 4.6, 37 °C, 1 mM PLP, 0.1 mM DTT; 0.15-10 mM substrate
[2] = substrate: N[C@@H](CCS(=O)O)C(=O)O; assay: purified protein; type: biochemical, Escherichia coli; details: pyridine/HCl 0.2 M (0.1 M in Figure 2 legend), pH 4.6, 37 °C, 1 mM PLP, 0.1 mM DTT, 3-300 mM substrate

Row | Molecule | Km [1] [µM] | Km [2] [µM] | kcat [2] [s⁻¹] | kcat/Km [2] [M⁻¹ s⁻¹]
1 | N[C@@H](CCC(=O)O)C(=O)O [L-Glu, L-Glutamic acid] | 840 ± 90 |  |  | 
2 | B1 |  | 38240 ± 3450 | 33.9 ± 1.07 | 890 ± 90

Reference: article PMC11396700, “Synthesis and Biological Activity of Homohypotaurine Obtained by the Enzyme-Based Conversion of Homocysteine Sulfinic Acid Using Recombinant Escherichia Coli Glutamate Decarboxylase” (Molecules, 2024)
